Results published in article PMC4522201.

Target: CEP-HSA (2-(ω-carboxyethyl)pyrrole derivative of HSA) (human) (UniProt P02768)
Test: SPR

Row | Substance | Kd
1 | CD36-Fc chimera (from UniProt P16671 1-472) (Fc fusion) | 6.53 nM
2 | TLR2-Fc chimera (from UniProt O60603 21-588) (Fc fusion) | 11.8 nM
